Legend:
[1] = target: TBC-DEG:αβ-tubulin complex (S. cerevisiae | porcine) (UniProt P40987)
[2] = target: TBC-DEG complex (TBCD-TBCE-Arl2 GTPase heterotrimer) (S. cerevisiae) (UniProt P40987)
[3] = target: TBC-DEG complex (TBCD-TBCE-Arl2 GTPase heterotrimer) (S. cerevisiae) (UniProt P40987); remark: listed apart in the source
[4] = target: TBC-DEG complex (TBCD-TBCE-Arl2 GTPase heterotrimer) (S. cerevisiae) (UniProt P40987); experiment: SEC-MALS; WTC-03S5 column; purified TBC-DEG (subunits co-expressed and co-purified), αβ-tubulin, TBCC and their complexes; ternary complex with GDP·ALFx (wild type) or GTP (Q73L)

Sequence of TBC-DEG complex (TBCD-TBCE-Arl2 GTPase heterotrimer) (S. cerevisiae) (P40987 whole entry, chain 1 of 3): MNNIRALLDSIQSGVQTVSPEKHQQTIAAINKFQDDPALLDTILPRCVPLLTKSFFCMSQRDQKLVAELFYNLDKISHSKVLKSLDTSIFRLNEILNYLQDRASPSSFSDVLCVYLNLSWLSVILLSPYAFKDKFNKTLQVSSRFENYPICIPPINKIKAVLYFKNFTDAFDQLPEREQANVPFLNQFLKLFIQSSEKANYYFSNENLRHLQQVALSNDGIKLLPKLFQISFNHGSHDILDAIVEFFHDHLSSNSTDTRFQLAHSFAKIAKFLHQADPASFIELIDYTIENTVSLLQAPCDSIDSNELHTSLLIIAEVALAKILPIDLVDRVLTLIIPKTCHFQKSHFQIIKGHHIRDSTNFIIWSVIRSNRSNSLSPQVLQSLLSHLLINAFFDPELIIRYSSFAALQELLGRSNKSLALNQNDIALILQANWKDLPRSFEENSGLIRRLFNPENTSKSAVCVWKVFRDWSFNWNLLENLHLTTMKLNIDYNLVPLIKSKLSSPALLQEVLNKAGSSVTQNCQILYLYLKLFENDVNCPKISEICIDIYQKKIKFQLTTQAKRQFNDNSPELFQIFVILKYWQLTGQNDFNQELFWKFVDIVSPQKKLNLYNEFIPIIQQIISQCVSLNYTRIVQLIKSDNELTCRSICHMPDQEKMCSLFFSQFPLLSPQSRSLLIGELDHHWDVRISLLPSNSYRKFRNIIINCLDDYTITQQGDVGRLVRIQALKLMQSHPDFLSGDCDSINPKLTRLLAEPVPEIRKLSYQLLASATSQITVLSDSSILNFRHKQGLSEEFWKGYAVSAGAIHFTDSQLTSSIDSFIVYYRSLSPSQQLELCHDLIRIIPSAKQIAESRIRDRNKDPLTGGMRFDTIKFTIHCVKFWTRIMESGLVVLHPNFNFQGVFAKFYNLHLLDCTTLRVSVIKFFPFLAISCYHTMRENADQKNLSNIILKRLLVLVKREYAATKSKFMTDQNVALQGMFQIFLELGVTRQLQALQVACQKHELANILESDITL
Sequence of TBC-DEG complex (TBCD-TBCE-Arl2 GTPase heterotrimer) (S. cerevisiae) (P39937 whole entry, chain 2 of 3, further chain): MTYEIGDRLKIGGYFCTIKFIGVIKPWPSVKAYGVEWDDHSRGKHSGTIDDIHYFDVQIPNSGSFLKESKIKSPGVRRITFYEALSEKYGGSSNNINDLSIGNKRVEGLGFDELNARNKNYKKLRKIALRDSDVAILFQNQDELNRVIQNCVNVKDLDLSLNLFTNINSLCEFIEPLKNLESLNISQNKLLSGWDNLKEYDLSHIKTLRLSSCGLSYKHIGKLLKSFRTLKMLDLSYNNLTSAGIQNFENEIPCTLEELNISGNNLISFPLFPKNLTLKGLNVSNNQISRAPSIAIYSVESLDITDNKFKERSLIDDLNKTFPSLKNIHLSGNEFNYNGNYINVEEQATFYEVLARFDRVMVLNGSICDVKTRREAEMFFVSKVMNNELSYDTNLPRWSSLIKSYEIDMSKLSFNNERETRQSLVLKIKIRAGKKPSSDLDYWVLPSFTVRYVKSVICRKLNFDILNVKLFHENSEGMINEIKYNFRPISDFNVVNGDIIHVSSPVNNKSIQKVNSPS
Sequence of TBC-DEG complex (TBCD-TBCE-Arl2 GTPase heterotrimer) (S. cerevisiae) (P39110 whole entry, chain 3 of 3, further chain): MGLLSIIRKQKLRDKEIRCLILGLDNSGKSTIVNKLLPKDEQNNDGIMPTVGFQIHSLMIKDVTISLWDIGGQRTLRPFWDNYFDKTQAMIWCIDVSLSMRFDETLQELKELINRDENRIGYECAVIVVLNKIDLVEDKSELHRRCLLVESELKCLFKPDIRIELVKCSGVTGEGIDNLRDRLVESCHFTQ

TBCC loop-deleted mutant Δ233-245 (from UniProt P46670 1-232; P46670 246-267) (natural protein)
steady-state GTP hydrolysis kcat, 1 μM TBC-DEG:1 μM TBCC-Δ233-245:1 μM αβ-tub [1]: 5670 M⁻¹ s⁻¹

Tubulin cofactor C (TBCC), S. cerevisiae Cin2p (from UniProt P46670 1-268) (natural protein)
steady-state GTP hydrolysis kcat (malachite green), 1 μM TBC-DEG:1 μM TBCC [2]: 12800 M⁻¹ s⁻¹

porcine brain αβ-tubulin dimer (from UniProt P02550 1-451; P02554 1-445) (complex)
steady-state GTP hydrolysis kcat (malachite green), 1 μM TBC-DEG:1 μM αβ-tub [2]: 6670 M⁻¹ s⁻¹
steady-state GTP hydrolysis kcat, 1 μM TBC-DEG and 1 μM TBCC with αβ-tubulin titrated 0.25-3.0 μM (kcat 1.10 to 2.77) [2]: 46200 M⁻¹ s⁻¹
steady-state GTP hydrolysis kcat at 3 μM αβ-tubulin, 1:3:1 TBCC:αβ-tubulin:TBC-DEG (number as in the text) [3]: 0.05 s⁻¹
stoichiometry N [4]: 1

— paper PMC4574351, “Tubulin cofactors and Arl2 are cage-like chaperones that regulate the soluble αβ-tubulin pool for microtubule dynamics” (eLife, 2015)
